Measured values from paper PMC2777438.
Read-outs that look alike come from different tables or passages of the source.

Legend:
Δ14ArtA = target: T1, Δ14ArtA (Staphylococcus aureus plasmid pSK41, UniProt Q52270 15-62, del1-14); experiment: fluorescence polarization
T1 chain: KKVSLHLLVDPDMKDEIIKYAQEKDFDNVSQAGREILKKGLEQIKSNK

ArtA [1] = target: T2, ArtA (Staphylococcus aureus plasmid pSK41, UniProt Q52270 1-62); experiment: fluorescence polarization
T2 sequence: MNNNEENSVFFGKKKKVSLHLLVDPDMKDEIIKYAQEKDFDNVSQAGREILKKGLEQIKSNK

ArtA [2] = target: T2, ArtA; experiment: fluorescence polarization; remark: listed apart in the source
ArtA [3] = target: T2, ArtA; experiment: fluorescence polarization; remark: listed apart in the source
ArtA [4] = target: T2, ArtA; experiment: fluorescence polarization; remark: listed apart in the source
ArtA [5] = target: T2, ArtA; experiment: fluorescence polarization; remark: listed apart in the source
ArtA [6] = target: T2, ArtA; experiment: crystal structure

B1: Porf259 11-mer (dsDNA)
DNA 1: ACATGACAGGT
DNA 2: ACCTGTCATGT
binding result (Δ14ArtA): no binding | Kd (ArtA [1]): 790 ± 34 nM

B2: 16-mer consensus (dsDNA)
DNA 1: ACATGACATGACATGT
DNA 2: ACATGTCATGTCATGT
Kd (Δ14ArtA): 58 ± 3 nM | Kd (ArtA [1]): 60 ± 3 nM

B3: PtraA operator (dsDNA)
DNA 1: TTACATGACATGACATGTAATAC
DNA 2: GTATTACATGTCATGTCATGTAA
Kd (Δ14ArtA): 52 ± 6 nM | Kd (ArtA [1]): 42 ± 9 nM

B4: Porf538 Mutant 2 (dsDNA)
DNA 1: ACACGACATGAAATTAAACGT
DNA 2: ACGTTTAATTTCATGTCGTGT
binding result (Δ14ArtA): no binding | binding result (ArtA [1]): no binding

B5: Porf538 left half site (dsDNA)
DNA 1: ACACGACATCA
DNA 2: TGATGTCGTGT
binding result (Δ14ArtA): no binding | binding result (ArtA [1]): no binding

B6: PtraL operator (dsDNA)
DNA 1: TGCATTACATGACATGACATGTAAT
DNA 2: ATTACATGTCATGTCATGTAATGCA
Kd (Δ14ArtA): 39 ± 5 nM | Kd (ArtA [1]): 23 ± 5 nM

B7: PartA operator (dsDNA)
DNA 1: TTGTCATGACATGTCATGTGTAA
DNA 2: TTACACATGACATGTCATGACAA
Kd (Δ14ArtA): 41 ± 9 nM | Kd (ArtA [1]): 28 ± 8 nM

B8: Porf538 21-mer (dsDNA)
DNA 1: ACACGACATGAAATGACACGT
DNA 2: ACGTGTCATTTCATGTCGTGT
binding result (Δ14ArtA): no binding | Kd (ArtA [2]): 60 ± 10 nM | Kd (ArtA [3]): 42 ± 7 nM | Kd (ArtA [4]): 58 ± 5 nM

B9: 22-mer operator (dsDNA)
DNA 1: CAAACATGATATGACATGTAAT
DNA 2: ATTACATGTCATATCATGTTTG
Kd (Δ14ArtA): 58 ± 5 nM | Kd (ArtA [1]): 62 ± 6 nM

B10: Porf538 Mutant 1 (dsDNA)
DNA 1: ACACTAAATGAAATGACACGT
DNA 2: ACGTGTCATTTCATTTAGTGT
binding result (Δ14ArtA): no binding | binding result (ArtA [1]): no binding

B11: Porf259 24-mer (dsDNA)
DNA 1: TAAACATTGCATAACATGACAGGT
DNA 2: ACCTGTCATGTTATGCAATGTTTA
binding result (Δ14ArtA): no binding | binding result (ArtA [5]): no binding

B12: 11-mer consensus (dsDNA)
DNA 1: ACATGACATGT
DNA 2: ACATGTCATGT
Kd (Δ14ArtA): 222 ± 8 nM | Kd (ArtA [1]): 127 nM

B13: Porf538 right half site (dsDNA)
DNA 1: AAATGACACGT
DNA 2: ACGTGTCATTT
binding result (Δ14ArtA): no binding | binding result (ArtA [1]): no binding

B14: 12-mer consensus (crystal) (dsDNA)
DNA 1: GACATGACATGT
DNA 2: CACATGTCATGT
modifications: 5-bromouracil at thymines (MAD DNA only)
binding result (ArtA [6]): binds
